Patent US20230029635A1 (US Dept. of Health and Human Services, published 2023)

Key:
hFc-mC3d [1] = biological target: T1, hFc-mC3d (mouse, UniProt P01027 1002-1303); experiment: SPR, hFc-mC3d captured by anti-human IgG CH2 mAb, Fab injected
T1 construct: domain: C3d; also called hFc-mC3d fusion protein; not shown: human Fc of vector pCEP4-hFc

[2] = biological target: T2, Mouse C3b/iC3b/C3d deposited on zymosan particles (mouse, UniProt P01027 1002-1303, limits assumed); experiment: flow cytometry: His-tagged Fab at 5 µg/mL on zymosan particles opsonized with 50% mouse serum, mouse anti-6xHis Alexa Fluor 488
T2 construct: also called Zymosan deposited C3b/iC3b/(C3d) mouse
Experimental: One million zymosan particles deposited with C3b/iC3b/C3d were added into one well of a V-bottom 96-well plate. Then 500 ng/100 μL of antibody was applied in each well at 37° C. for 1 h. After washing three times by phosphate buffered saline and TWEEN™ 20 (PBST), 100 μL of a 1:1000 dilution of a mouse anti-His tag mAb conjugated to ALEXA FLUOR™ 488 (Qiagen, Hilden, Germany) in 1% (w/v) bovine serum albumin (BSA)/DPBS was used to detect the antibody.
The cross reactivity of 5 μg/mL of antibodies of the invention with 6xHis tag to human, or cynomolgus, or mouse C3b/iC3b/C3d deposited on zymosan particles after incubation with 50% corresponding serum at 37° C. for 45 min was determined by flow cytometry with a secondary mouse anti-HIS mAb conjugated to ALEXA FLUOR™ 488. […] In Table 3, the relative level of affinity is shown by the number of plus or minus signs (e.g., +++=high affinity). m/h and r/h denote […], respectively, variable domains fused human constant domains; k, kappa light chain; λ, lambda light chain.

hFc-hC3d [3] = biological target: T3, hFc-hC3d (human, UniProt P01024 1002-1303); experiment: Table 3, column Human C3d; rounded form of the SPR Kd on hFc-hC3d of Table 2
T3 construct: range 1002-1303; expressed in HEK293F cells, purified on Protein A; also called hFc-hC3d fusion protein; not shown: human Fc of vector pCEP4-hFc
Experimental: (§1) Surface plasmon resonance (SPR) for the measurement of kinetic and thermodynamic parameters of the binding of purified antibodies to hC3d or mC3d antigens was performed on a Biacore X100 instrument using Biacore reagents and software (GE Healthcare, Chicago, Ill.). A mouse anti-human IgG CH2 mAb was immobilized on a CM5 sensor chip using reagents and instructions supplied with the Human Antibody Capture Kit (GE Healthcare). hFc-hC3d and hFc-mC3d fusion proteins were captured at a density not exceeding 400 RU. Each sensor chip included an empty flow cell for instantaneous background depletion. All binding assays used 1×HBS-EP+ running buffer (10 mM HEPES, 150 mM NaCl, 3 mM EDTA (pH 7.4), and 0.05% (v/v) surfactant P20) and a flow rate of 30 μL/min. All of the Fabs were injected at five different concentrations (dilution factor was 2), and the lowest concentration was tested in duplicates. The sensor chips were regenerated with 3 M MgCl₂ from the Human Antibody Capture Kit without any loss of binding capacity. Calculation of association (kₒₙ) and dissociation (koff) rate constants was based on a 1:1 Langmuir binding model. The equilibrium dissociation constant (KD) was calculated from koff/kₒₙ.

hFc-mC3d [4] = biological target: T1, hFc-mC3d; experiment: Table 3, column Mouse C3d; rounded form of the SPR Kd on hFc-mC3d of Table 2
Experimental: as §1

hFc-hC3d [5] = biological target: T3, hFc-hC3d; experiment: SPR (Biacore X100), hFc-hC3d captured by anti-human IgG CH2 mAb, Fab injected, 1:1 Langmuir
Experimental: as §1

hFc-mC3d [6] = biological target: T1, hFc-mC3d; experiment: SPR (Biacore X100), hFc-mC3d captured by anti-human IgG CH2 mAb, Fab injected, 1:1 Langmuir
Experimental: as §1

[7] = biological target: T4, Jeko1 cell line deposited C3d (human, UniProt P01024 1002-1303, limits assumed); experiment: flow cytometry: Fab at 2.5 µg/mL on JeKo-1 cells opsonized with 10 µg/mL rituximab and incubated with 50% C5-depleted human serum for 2 h with 0.5 U/mL CR1 or for 24 h (C3b/iC3b decayed to C3d)
T4 construct: domain: C3d; also called human C3d on JeKo-1 cells
Experimental: FIG. 13 is a graph showing the binding activity of antibodies of the invention to different human C3 fragments. The binding of each chimeric rabbit/human Fab at 2.5 μg/mL to C3b/iC3b/(C3d), or C3d was determined by flow cytometry against JeKo-1 cells deposited with human C3 fragments after opsonization by 10 μg/mL rituximab (RTX) followed by incubation with 50% CS-depleted human serum for 2 h with or without 0.5 U/mL CR1 or 24 h. In the presence of CR1 or after treatment with serum for 24 h, most of C3 fragments had decayed from C3b/iC3b to C3d.
To deposit C3 fragments on zymosan, one hundred million of preactivated zymosan particles (Complement Technology, Inc.) were washed and then incubated with 50% pooled normal human complement serum (PNHCS) or normal BALB/c mouse or cynomolgus complement serum in 1 mL Dulbecco's phosphate-buffered saline (DPBS) at 37° C. for 1 h. For JeKo-1 cells, 10 μg/mL rituximab (RTX) was first used to opsonize cells followed by incubation with 50% CS-depleted PNHCS. To allow C3b/iC3b deposited on JeKo-1 cells to decay to C3d, the incubation time of cells with serum was prolonged to 24 h, or 0.5 U/mL CR1 (rhCD35, R&D Systems, Minneapolis, Minn.) was included during the incubation. […]

hFc-mC3d [8] = biological target: T1, hFc-mC3d; experiment: Table 3, column Mouse C3d; the SPR Kd on hFc-mC3d of Table 2
Experimental: as §1

hFc-hC3d [9] = biological target: T3, hFc-hC3d; experiment: Table 3, column Human C3d; the SPR Kd on hFc-hC3d of Table 2
Experimental: as §1

T2 sequence (P01027 1002-1303 limits assumed): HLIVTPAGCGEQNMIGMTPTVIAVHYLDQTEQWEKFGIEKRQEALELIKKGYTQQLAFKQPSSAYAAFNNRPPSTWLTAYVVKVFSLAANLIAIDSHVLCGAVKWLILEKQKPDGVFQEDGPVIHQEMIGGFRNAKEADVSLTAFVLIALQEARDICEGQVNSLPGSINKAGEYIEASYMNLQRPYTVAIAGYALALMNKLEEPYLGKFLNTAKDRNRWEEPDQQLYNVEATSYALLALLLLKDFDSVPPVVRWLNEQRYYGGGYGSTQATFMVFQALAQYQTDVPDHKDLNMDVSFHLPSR
T3 sequence (P01024 other isoform, or with tags, fused parts or gaps, form in doubt): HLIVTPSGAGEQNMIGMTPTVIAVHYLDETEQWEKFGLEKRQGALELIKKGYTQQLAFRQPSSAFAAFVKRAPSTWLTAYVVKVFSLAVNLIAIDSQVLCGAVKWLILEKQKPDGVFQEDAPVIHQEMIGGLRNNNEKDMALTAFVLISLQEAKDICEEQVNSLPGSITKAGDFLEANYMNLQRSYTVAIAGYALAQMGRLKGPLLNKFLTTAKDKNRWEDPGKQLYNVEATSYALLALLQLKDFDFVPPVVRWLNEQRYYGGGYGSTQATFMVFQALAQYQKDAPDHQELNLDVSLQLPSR
T1 sequence (P01027 other isoform, or with tags, fused parts or gaps): as the sequence (P01027 1002-1303 limits assumed) above, with C9A counted along it
T4 sequence (P01024 1002-1303 limits assumed): as the sequence (P01024 other isoform, or with tags, fused parts or gaps, form in doubt) above, with A9C counted along it

B1: 4S12 (Fab, V domains shown)
VH: QEQLVESGGRLVTPGTPLTLTCTVSGFSLSSYHMSWVRQAPGKGLEWIGIIYFTGDASYASWAKGRFTISKTSPTTVDLKITSPTTEDTATYFCARDTDWNSSRTIPFDPWGPGTLVTVSS
VL: SFVLTQPASVQVNLGQTVSLTCTADTLSRTYASWYQQKPGQAPVLLIYRDTSRPSGVPDRFSGSSSGNTATLTISGAQAGDEADYYCATSDGSGSSYQYVFGGGTQLTVTG
notes: Chimeric rabbit/human Fab, lambda, with 6xHis tag
hFc-mC3d [1]
  binding result: no binding
[2]
  binding result: no binding (tested: 5 µg/mL)

B2: 3NS2 (Fab, V domains shown)
VH: QSVEESGGRLVTPGTPLTLTCTVSGIDLSSYSMGWVRQAPGKGLEWIGIIYNTGRIDYANWAKGRFTISKTSTTVDLKITSPTIGDTATYFCGRGYPGDIWGPGTLVTVSS
VL: DVVMTQTPSSVSAAVGGTVTIKCQASESIYSDLAWYQQKPGQRPKLLIYFASTLASGVPSRFKGSGSGTEYTLTISGVQREDAATYYCLGDYGNSWAFGAGTKVEIK
notes: as for B1
hFc-mC3d [1]
  binding result: no binding
[2]
  binding result: no binding (tested: 5 µg/mL)

B3: 5S8 (Fab, V domains shown)
VH: QSVEESGGRLVTPGTPLTLTCTVSGFSLSSYAMTWVRQAPGKGLEWIGVIGTSGMRYYANWAKGRFTISKTSTTVDLKITSPTTEDTATYFCARANFYVGNDESTDAFDPWGPGTLVTVSS
VL: ALVMTQTPPSLSASVGETVRIRCLASEDIYNTISWYQQKPGKPPTLLIYGASNLKSGVPPRFSGSGSGTDYTLTIGGVQSEDAATYYCLGGYSYSSTGLTFGAGTKVEIK
notes: Chimeric rabbit/human Fab, kappa, with 6xHis tag in SPR, zymosan and JeKo-1 assays; also called Fab 5S8; 5S8 r/h-IgG1k
hFc-hC3d [3]
  Kd: 3.4 nM
hFc-mC3d [4]
  Kd: 9 nM
hFc-hC3d [5]
  Kd: 3.35 nM
hFc-mC3d [6]
  Kd: 9.04 nM

B4: 4S04 (Fab, V domains shown)
VH: QEQLKESGGRLVTPGTPLTLTCTASGFSLSTYAMIWVRQAPGKGLEYIGIISYGGSAYYASWAKGRFTISKTSTTVDLKITSPTTEDTATYFCARDRGFGYGYGIGYYGLDPWGPGTLVTVSS
VL: DGVMTQTPSSTSAAVEGTVTINCQASQSIGSYLSWYQQKPGQPPKLLIYQASKMASGVPSRFKGSGSGTQFTLTISNVQGEDAATYYCLGHYVGDWSFGAGTKVEIK
notes: Chimeric rabbit/human Fab, kappa, with 6xHis tag
hFc-hC3d [5]
  Kd: 4.11 nM

B5: 3N02 (Fab, V domains shown)
VH: QKQLVESGGRLVTPGGSLTLTCTISGIDLNTYGMTWVRQAPGKGLEYIGIIVSSGNTYYANWAQGRFTISKTSTTVDLKMTSLTASDTATYFCARGLGRAYSSGYGMDGWGPGTLVTVSS
VL: DPVLTQTPSSTSAAVGGTVTIKCQASQNIYTSLAWYQQKPGQPPKLLIYGASNLASGVPSRFKGSRSGTEYTLTISGVEREDAATYYCLGSYTQIDTTFGGGTKLEIK
notes: Chimeric rabbit/human Fab (rabbit variable domains, human kappa constant domain) with 6xHis tag in SPR, zymosan ELISA and flow cytometry; also called 3N02 r/h-IgG1k
hFc-hC3d [3]
  Kd: 13 nM
hFc-mC3d [4]
  Kd: 98 nM
hFc-hC3d [5]
  Kd: 13.3 nM
hFc-mC3d [6]
  Kd: 97.6 nM

B6: MN66 (Fab, V domains shown)
VH: QSVEESGGRLVTPGTPLTLTCTVSGFSLSSYAMSWVRQAPGKGLEWIGIIYPNDITYYASWAKGRFTISKTSTTVDLKITSPTTEDTATYFCARVVSWPGYTTEYYFNIWGPGTLVTISS
VL: QFVLTQPQSVSGSLGQTVSMSCKCDSGNIDNYYVHWYQQHPGKAPTTVIYNDDQRPSGVPDRFSGSIDSTSNSASLTITGLLAEDEADYYCLSSVSSDNYVFGGGTQLTVTG
notes: Lambda
hFc-hC3d [5]
  Kd: 0.31 nM

B7: 3NS3 (Fab, V domains shown)
VH: QSLEESGGGLVTPGTPLTLTCTVSGIDLSAYAMTWVRQAPGKGLEWIGMISTDGATYYASWAKGRFTISKTSTTADLTITSPTTEDTATYFCARGLTNFFIWGPGTLVTISS
VL: QPVLTQSPSASATLGSSAKLTCTLSSAHSTYTIAWYQQKQGESPRCLMYLKSDGSYTRGTGVPDRFSGSSSGADRYLIIPNVQADDEADYYCGADYSGGYLFGGGTQLTVTG
notes: as for B1
hFc-mC3d [1]
  binding result: no binding
[2]
  binding result: no binding (tested: 5 µg/mL)

B8: 3NS1 (Fab, V domains shown)
VH: QSVEESGGRLVTPGTPLTLTCTVSGFSLSNYIITWVRQAPGKGLEWIGMISTDGDTYYANWAKGRFTISKTSTTANLKITSPTTEDTATYFCARGLTNFFIWGPGTLVTVSS
VL: QPVLTQSPSVSAALGASAKLTCTLSSAHKTYSIGWYQQHQGEAPRFLMQLRRDGSYTKGTGVPDHFSGSSSGADRYLIIPNVQADDEADYYCGVDYDGGYVFGGGTQLTVTG
notes: Chimeric rabbit/human Fab, lambda, with 6xHis tag; also called 3NS1 r/h-IgG1λ
hFc-mC3d [1]
  binding result: no binding
[2]
  binding result: no binding (tested: 5 µg/mL)
[7]
  binding result: binds

B9: 4S10 (Fab, V domains shown)
VH: QSVEESRGRLVTPGTPLTLTCTVSGIDLSSSAITWVRQAPGKGLEWIGMISTDGATYYANWAKGRFTFSKTSTTADLKITSPTTEDTATYFCARGLTNFSIWGPGTLVTVSS
VL: QPVLTQSPSASAALGASAKLTCTLSSAHKTYTIAWYQQQPGESPRYLMLLKSDGSYTRGPGVPDRFSGSSSGADRYLIIPSVQADDEAGYYCGADYNGGYVFGGGTQLTVTG
notes: as for B1
hFc-mC3d [1]
  binding result: no binding

B10: 3N07 (Fab, V domains shown)
VH: QSLEESGGRLVTPGTPLTLTCTVSGFSLSRYTMAWVRQAPGKGLEYIGWIDSSGSTYYASWAKGRFTISKTSSTTVDLKMTSLTTEDTATYFCASGNDGGDPLYYGMDPWGPGTLVTVSS
VL: DGVMTQTPSSTSAAVGGTVTIKCQASQSIRSWLSWYQQKPGQPPKLLIYEASKLASGVPSRFKGSRSGTEYTLAISGVQREDAATYYCLGSIASDDTAFGAGTNVEIK
notes: Chimeric rabbit/human Fab, kappa, with 6xHis tag; also called Fab 3N07; 3N07 r/h-IgG1k
hFc-mC3d [8]
  Kd: 132 nM
hFc-hC3d [3]
  Kd: 3.1 nM
hFc-hC3d [5]
  Kd: 3.1 nM
hFc-mC3d [6]
  Kd: 132 nM

B11: d301 (Fab, V domains shown)
VH: QSLEESGGRLVTPGTPLTLTCTVSGFSLSTYTLGWVRQAPGKGLEYIGWIDSSGSAYYASWAKGRFTISKASSTTVDLKMAGLTTEDTATYFCASGNTGGDPLYYGMDPWGPGTLVTVSS
VL: DPVLTQTPSSTSAAVGGTVTIKCQASQNIGRWLAWYQQKPGQPPKLLIYRASDLASGVPSRFKGSGSGTQFTLTISGVQREDAATYYCLGSYSSSDSAFGGGTEVVVK
notes: Chimeric rabbit/human Fab, kappa, with 6xHis tag; also called Fab d301; d301 r/h-IgG1k
hFc-hC3d [9]
  Kd: 0.99 nM
hFc-mC3d [4]
  Kd: 23 nM
hFc-hC3d [5]
  Kd: 0.99 nM
hFc-mC3d [6]
  Kd: 22.9 nM
